For the assay, the target named is FcγRIIIa on human PBMCs expressing heterozygous V158/F158 FcγRIIIa (human) (UniProt P08637). Put plainly: cell-based or functional assay.
FcγRIIIa on human PBMCs expressing heterozygous V158/F158 FcγRIIIa (human), sequence (P08637 17-254): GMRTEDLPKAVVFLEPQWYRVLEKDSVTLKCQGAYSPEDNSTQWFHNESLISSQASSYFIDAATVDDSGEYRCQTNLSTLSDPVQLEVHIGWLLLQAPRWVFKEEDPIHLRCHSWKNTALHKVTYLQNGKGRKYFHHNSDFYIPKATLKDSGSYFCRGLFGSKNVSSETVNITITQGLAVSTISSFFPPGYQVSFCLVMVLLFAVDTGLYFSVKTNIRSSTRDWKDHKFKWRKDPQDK

In turn, S239D/I332E alemtuzumab (antibody) had an ADCC EC50 of 3 ng/mL, an ADCC Fold WT of 3.3 fold and an ADCC log(EC50) of 0.49.

V264I/I332E alemtuzumab (antibody) returned an ADCC EC50 of 4 ng/mL and an ADCC log(EC50) of 0.6.

The values are drawn from patent publication US20070286859A1.
